Measured values taken from PMC130038.
Read-outs that look alike come from different tables or passages of the source.

Columns and labels:
Test in all cases: EMSA
[1] = target: T1, *VLF-1 (HAHIS-VLF-1, very late expression factor 1) (Autographa californica multiple capsid …, UniProt Q06687 1-379)
T1 sequence: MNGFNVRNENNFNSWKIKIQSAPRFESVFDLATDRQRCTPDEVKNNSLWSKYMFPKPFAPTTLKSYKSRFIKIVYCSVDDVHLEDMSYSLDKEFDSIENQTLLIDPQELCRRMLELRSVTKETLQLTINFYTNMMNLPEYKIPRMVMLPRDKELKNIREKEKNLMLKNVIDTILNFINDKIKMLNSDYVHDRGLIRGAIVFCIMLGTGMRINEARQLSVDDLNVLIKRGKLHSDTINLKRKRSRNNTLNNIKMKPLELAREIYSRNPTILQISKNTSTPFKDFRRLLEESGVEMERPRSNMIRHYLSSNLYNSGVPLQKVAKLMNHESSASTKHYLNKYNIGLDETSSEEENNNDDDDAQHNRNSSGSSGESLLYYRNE

[2] = target: T1, *VLF-1 (HAHIS-VLF-1, very late …); remark: listed apart in the source
[3] = target: T1, *VLF-1 (HAHIS-VLF-1, very late …); remark: listed apart in the source
[4] = target: T1, *VLF-1 (HAHIS-VLF-1, very late …); remark: listed apart in the source

B1: substrate VII, hairpin hr DNA (v-hr1/v-hr3) (structured_DNA)
DNA 1: GGGGTTTGTTTTTCAAAACTAAACTCGCTTTACGAGTAGAATTCTACTTGTAACGCACAATCAAGGGATGATGTCAGGGG
DNA 2: CCCCTGACATCATCCCTTGATTGTGAGTTTAGTTTTGAAAAACAAACCCC
[1]
  binding result: binds

B2: substrate I, linear single-stranded DNA (4X12-2) (ssDNA)
DNA: TGGGTGAACCTGCAGGTGGGCAAAGATGTCCTAGCAATGTAATCGTCAAGCTTTATGCCGTT
[2]
  binding result: no binding

B3: substrate II, linear double-stranded DNA (4X12-2/4X12-5) (dsDNA)
DNA 1: B2 DNA
DNA 2: AACGGCATAAAGCTTGACGATTACATTGCTAGGACATCTTTGCCCACCTGCAGGTTCACCCA
[2]
  binding result: no binding

B4: substrate V, cruciform (4X12-2/4X12-1/4X12-3/4X12-4a) (structured_DNA)
DNA 1: B2 DNA
DNA 2: GACGCTGCCGAATTCTACCAGTGCCTTGCTAGGACATCTTTGCCCACCTGCAGGTTCACCC
DNA 3: CAACGGCATAAAGCTTGACGATTACATTGCTAGGACATGCTGTCTAGAGGATCCGACTATCGA
DNA 4: ATCGATAGTCGGATCCTCTAGACAGCATGTCCTAGCAAGGCACTGGTAGAATTCGGCAGCGT
[3]
  binding result: binds

B5: substrate IV, three-way junction (4X12-2/4X12-1/4X12-3) (structured_DNA)
DNA 1: B2 DNA
DNA 2: B4 DNA 2
DNA 3: B4 DNA 3
[4]
  binding result: binds
